T1: human DLL3 (ACRO, DLL3-H52H4) (human, UniProt Q9NYJ7 27-492)
T1 construct: Bought
T1 sequence: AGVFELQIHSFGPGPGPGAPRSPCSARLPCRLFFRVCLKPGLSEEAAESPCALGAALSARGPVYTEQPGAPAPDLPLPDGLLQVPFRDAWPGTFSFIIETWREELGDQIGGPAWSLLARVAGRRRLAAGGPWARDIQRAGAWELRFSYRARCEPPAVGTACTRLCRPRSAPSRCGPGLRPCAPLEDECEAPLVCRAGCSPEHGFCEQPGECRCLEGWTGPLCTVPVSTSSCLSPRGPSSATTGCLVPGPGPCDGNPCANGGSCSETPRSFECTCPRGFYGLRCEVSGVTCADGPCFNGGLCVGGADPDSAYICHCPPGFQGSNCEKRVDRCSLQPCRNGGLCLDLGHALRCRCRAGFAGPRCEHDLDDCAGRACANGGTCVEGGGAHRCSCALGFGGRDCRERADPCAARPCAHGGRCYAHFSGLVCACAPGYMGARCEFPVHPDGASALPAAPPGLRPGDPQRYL

B1: hu30L4H10 (antibody, human IgG1, kappa, V domains shown)
VH: EVRLVQSGAEVKKPGASVKVSCKASGYTFTDYYMNWVRQSHGQSLEWMGIINPYTGDTSYNQKFRGRVTLTVDKSASTAYMELSSLRSEDTAVYYCARYHYGPHLEGYFDVWGQGTTVTVSS
VL: DIQMTQSPSSLSASVGDRVTITCKASENVGYVSWYQQKPGKAPKLLIYGASNRYTGVPSRFSGSGSGTDFTLTISSLQPEDFATYYCGQSYSYPLTFGQGTKLEIKR
B2: hu30L5H8 (antibody, human IgG1, kappa, V domains shown)
VH: EVRLVQFGAVVKKPGASVKVSCKASGYTFTDYYMNWVRQAPGQSLEWMGIINPYTGDTSYNQKFRGRVTLTVDKSSSTAYMELSSLRSEDTAVYYCARYHYGPHLEGYFDVWGQGTTVTVSS
VL: DIQMTQSPSSLSASVGDRVTITCKASENVGYVSWYQQKPGKSPKLLIYGASNRYTGVPDRFSGSGSGTDFTLTISSLQPEDFATYYCGQSYSYPLTFGSGTKLEIKR
B3: hu30L1H7 (antibody, human IgG1, kappa)
heavy: not shown
light: DIVMTQSPDSLAVSLGERATINCKASENVGYVSWYQQKPGQPPKLLIYGASNRYTGVPDRFSGSGSGTDFTLTISSLQAEDVAVYYCGQSYSYPLTFGQGTKLEIKRTVAAPSVFIFPPSDEQLKSGTASVVCLLNNFYPREAKVQWKVDNALQSGNSQESVTEQDSKDSTYSLSSTLTLSKADYEKHKVYACEVTHQGLSSPVTKSFNRGEC
B4: hu30L1H9 (antibody, human IgG1, kappa, V domains shown)
VH: EVRLVQSGAEVKKPGASVKVSCKASGYTFTDYYMNWVRQAPGQSLEWIGIINPYTGDTSYNQKFRGRATLTVDKSASTAYMELSSLRSEDTAVYYCARYHYGPHLEGYFDVWGQGTTVTVSS
VL: DIVMTQSPDSLAVSLGERATINCKASENVGYVSWYQQKPGQPPKLLIYGASNRYTGVPDRFSGSGSGTDFTLTISSLQAEDVAVYYCGQSYSYPLTFGQGTKLEIKR
B5: hu30L1H11 (antibody, human IgG1, kappa, V domains shown)
VH: EVRLVQFGAVVKKPGASVKVSCKASGYTFTDYYMNWVRQAPGQSLEWMGIINPYTGDTSYNQKFRGRVTLTVDKSSSTAYMELSSLTSEDTAVYYCARYHYGPHLEGYFDVWGQGTTVTVSS
VL: DIVMTQSPDSLAVSLGERATINCKASENVGYVSWYQQKPGQPPKLLIYGASNRYTGVPDRFSGSGSGTDFTLTISSLQAEDVAVYYCGQSYSYPLTFGQGTKLEIKR
B6: hu6L1H1 (antibody, human IgG1, kappa, V domains shown)
VH: EVQLVQSGAEVKKPGASVKVSCKASGYTFTDYYMNWVRQAPGQRLEWMGIINPYSGVTIYNHKFKGRVTITVDKSASTAYMELSSLRSEDTAVYYCARQDSLLDYAMDYWGQGTTVTVSS
VL: DIQMTQSPSSLSASVGDRVTITCHASQGISGNMGWLQQKPGKAPKGLIYHGANLEDGVPSRFSGSGSGTDFTLTISSLQPEDFATYYCVQYAQFPYTFGGGTKVEIKR
B7: hu6L4H6 (antibody, human IgG1, kappa, V domains shown)
VH: EVQLVQSGSELKKPGASVKVSCKASGYTFTDYYMNWVRQAPGQGLEWMGIINPYSGVTIYNHKFKGRFVLSVDKSSNTAYLQISSLKAEDTAVYYCARQDSLLDYAMDYWGQGTTVTVSS
VL: DIQMTQSPSSLSASVGDRVTITCHASQGISGNMGWLQQKPGKAPKGLIYHGANLEDGVPSRFSGSGSGADYTLTISSLQPEDFADYYCVQYAQFPYTFGGGTKVEIKR
B8: hu6L2H3 (antibody, human IgG1, kappa, V domains shown)
VH: EVQLVQSGAEVKKPGASVKVSCKASGYTFTDYYMNWVRQAPGQRLEWIGIINPYSGVTIYNHKFKGRATLTVDKSANTAYMELSSLRSEDTAVYYCARQDSLLDYAMDYWGQGTTVTVSS
VL: DIQMTQSPSSLSASVGDRVTITCHASQGISGNMGWLQQKPGKAPKGLIYHGANLEDGVPSRFSGSGSGADYTLTISSLQPEDFATYYCVQYAQFPYTFGGGTKVEIKR
B9: hu6L1H2 (antibody, human IgG1, kappa, V domains shown)
VH: EVQLVQSGAEVKKPGASVKVSCKASGYTFTDYYMNWVRQAPGQRLEWMGIINPYSGVTIYNHKFKGRVTLTVDKSANTAYMELSSLRSEDTAVYYCARQDSLLDYAMDYWGQGTTVTVSS
VL: DIQMTQSPSSLSASVGDRVTITCHASQGISGNMGWLQQKPGKAPKGLIYHGANLEDGVPSRFSGSGSGTDFTLTISSLQPEDFATYYCVQYAQFPYTFGGGTKVEIKR
B10: hu6L2H1 (antibody, human IgG1, kappa, V domains shown)
VH: EVQLVQSGAEVKKPGASVKVSCKASGYTFTDYYMNWVRQAPGQRLEWMGIINPYSGVTIYNHKFKGRVTITVDKSASTAYMELSSLRSEDTAVYYCARQDSLLDYAMDYWGQGTTVTVSS
VL: DIQMTQSPSSLSASVGDRVTITCHASQGISGNMGWLQQKPGKAPKGLIYHGANLEDGVPSRFSGSGSGADYTLTISSLQPEDFATYYCVQYAQFPYTFGGGTKVEIKR
B11: hu6L1H3 (antibody, human IgG1, kappa, V domains shown)
VH: EVQLVQSGAEVKKPGASVKVSCKASGYTFTDYYMNWVRQAPGQRLEWIGIINPYSGVTIYNHKFKGRATLTVDKSANTAYMELSSLRSEDTAVYYCARQDSLLDYAMDYWGQGTTVTVSS
VL: DIQMTQSPSSLSASVGDRVTITCHASQGISGNMGWLQQKPGKAPKGLIYHGANLEDGVPSRFSGSGSGTDFTLTISSLQPEDFATYYCVQYAQFPYTFGGGTKVEIKR
B12: hu6L3H1 (antibody, human IgG1, kappa, V domains shown)
VH: EVQLVQSGAEVKKPGASVKVSCKASGYTFTDYYMNWVRQAPGQRLEWMGIINPYSGVTIYNHKFKGRVTITVDKSASTAYMELSSLRSEDTAVYYCARQDSLLDYAMDYWGQGTTVTVSS
VL: DIQMTQSPSSLSASVGDRVTITCHASQGISGNMGWLQQKPGKSFKGLIYHGANLEDGVPSRFSGSGSGADYTLTISSLQPEDFATYYCVQYAQFPYTFGGGTKVEIKR
B13: hu6L3H3 (antibody, human IgG1, kappa, V domains shown)
VH: EVQLVQSGAEVKKPGASVKVSCKASGYTFTDYYMNWVRQAPGQRLEWIGIINPYSGVTIYNHKFKGRATLTVDKSANTAYMELSSLRSEDTAVYYCARQDSLLDYAMDYWGQGTTVTVSS
VL: DIQMTQSPSSLSASVGDRVTITCHASQGISGNMGWLQQKPGKSFKGLIYHGANLEDGVPSRFSGSGSGADYTLTISSLQPEDFATYYCVQYAQFPYTFGGGTKVEIKR
B14: hu6L3H2 (antibody, human IgG1, kappa, V domains shown)
VH: EVQLVQSGAEVKKPGASVKVSCKASGYTFTDYYMNWVRQAPGQRLEWMGIINPYSGVTIYNHKFKGRVTLTVDKSANTAYMELSSLRSEDTAVYYCARQDSLLDYAMDYWGQGTTVTVSS
VL: DIQMTQSPSSLSASVGDRVTITCHASQGISGNMGWLQQKPGKSFKGLIYHGANLEDGVPSRFSGSGSGADYTLTISSLQPEDFATYYCVQYAQFPYTFGGGTKVEIKR
B15: M98CH1 (antibody, human IgG1, kappa, V domains shown)
VH: EVQLVESGGGLVKPGGSLKLSCAASGFTFSDYGIHWVRQAPEKGLEWVAYISSGGYTIYYADTVKGRFTISRDNAKNTLFLQMTSLRSEDTAMYYCARGDYDDIFYTMDYWGQGTSVTVSS
VL: DIQMTQTTSSLSASLGDRVTISCRASRDITKFLNWYQQKPDGTVKLLIYYTSRLHSGVPSRFSGSGSGTDYSLTISNLDQEDIATYFCQQGNTLPWTFGGGTKLDIKR
notes: chimeric antibody of mAb98, human IgG1/kappa; also called M98CHI
B16: hu98L1H2 (antibody, human IgG1, kappa, V domains shown)
VH: EVQLVESGGGLVQPGGSLRLSCAASGFTFSDYGIHWVRQAPGKGLEWVAYISSGGYTIYYADTVKGRFTISRDNAKNSLYLQMNSLRAEDTAVYYCARGDYEDIFYTMDYWGQGTTVTVSS
VL: DIQMTQSPSSLSASVGDRVTITCRASRDITKFLNWYQQKPGKAPKLLIYYTSRLHSGVPSRFSGSGSGTDFTLTISSLQPEDFATYYCQQGNTLPWTFGGGTKVEIKR
B17: M6CH1 (antibody, human IgG1, kappa, V domains shown)
VH: EVQLQQSGPVLVKPGASVKMSCKASGYTFTDYYMNWVKQSHGKSLEWIGIINPYSGVTIYNHKFKGKATLTVDKSSNTAYMELNSLTSEDSAVYYCARQDSLLDYAMDYWGQGTSVTVSS
VL: DILMTQSPSSMSVSLGDTVSITCHASQGISGNMGWLQQKPGKSFKGLIYHGANLEDGVPSRFSGSGSGADYSLTISSLESEDFADYYCVQYAQFPYTFGGGTKLEIKR
notes: chimeric antibody of mAb6, human IgG1/kappa; also called M6CHI

What follows are binders tested against T1, human DLL3 (ACRO, DLL3-H52H4) (assay: SPR Biacore 8K, Ab captured on Protein A).
Excerpt: Test antibodies were affinity-captured with a Protein A biosensor chip (Cat. #29127556, Cytiva) for 18 seconds, and then the antigens human DLL3 (ACRO, DLL3-H52H4), cynomolgus monkey DLL3 (KACTUS, DLL-RM103), mouse DLL3 (KACTUS, DLL-MM103), human CD3D&3E (ACRO, CDD-H52W1), and monkey CD3D&3E (ACRO, CDD-C52W4) were allowed to flow through the surface of the chip for 180 seconds, followed by 600 seconds of dissociation. Reaction signals were detected in real time using a Biacore 8K (Cytiva) instrument to obtain association and dissociation curves. After the dissociation in each experimental cycle, the chip was washed and regenerated with a 10 mM glycine-hydrochloric acid solution (pH 1.5, Cat. #BR-1003-54, Cytiva). Data fitting was performed using a 1:1 Model.
B1 was tested, and the Kd was 2.16 nM, the koff was 0.000919 s⁻¹ and the kon was 427000 M⁻¹ s⁻¹. B2 gave a Kd of 2.54 nM, a koff of 0.00102 s⁻¹ and a kon of 400000 M⁻¹ s⁻¹. For B3, the Kd was 1.16 nM, the koff was 0.00115 s⁻¹ and the kon was 985000 M⁻¹ s⁻¹. B4 showed a Kd of 2.34 nM, a koff of 0.000981 s⁻¹ and a kon of 419000 M⁻¹ s⁻¹. Binder B5 has a Kd of 2.83 nM, a koff of 0.00117 s⁻¹ and a kon of 414000 M⁻¹ s⁻¹. Work on B6 yielded a Kd of 2.81 nM, a koff of 0.00225 s⁻¹ and a kon of 798000 M⁻¹ s⁻¹. B7 was tested, and the Kd was 0.424 nM, the koff was 0.000811 s⁻¹ and the kon was 1.91e+06 M⁻¹ s⁻¹. In the case of B8, the Kd is reported as 2.01 nM, the koff is reported as 0.00139 s⁻¹ and the kon is reported as 695000 M⁻¹ s⁻¹. In the case of B9, the Kd is reported as 2.19 nM, the koff is reported as 0.00173 s⁻¹ and the kon is reported as 787000 M⁻¹ s⁻¹. B10 gave a Kd of 2.19 nM, a koff of 0.00155 s⁻¹ and a kon of 709000 M⁻¹ s⁻¹. B11 showed a Kd of 2.76 nM, a koff of 0.00224 s⁻¹ and a kon of 812000 M⁻¹ s⁻¹. In the case of B12, the Kd is reported as 2.02 nM, the koff is reported as 0.00144 s⁻¹ and the kon is reported as 715000 M⁻¹ s⁻¹. For B13, the Kd was 1.88 nM, the koff was 0.00135 s⁻¹ and the kon was 718000 M⁻¹ s⁻¹. B14 gave a Kd of 1.59 nM, a koff of 0.00114 s⁻¹ and a kon of 716000 M⁻¹ s⁻¹. B15 showed a Kd of 0.429 nM, a koff of 0.000682 s⁻¹ and a kon of 1.59e+06 M⁻¹ s⁻¹. B16 showed a Kd of 1.97 nM, a koff of 0.00307 s⁻¹ and a kon of 1.56e+06 M⁻¹ s⁻¹. In the case of B17, the Kd is reported as 0.681 nM, the koff is reported as 0.000657 s⁻¹ and the kon is reported as 965000 M⁻¹ s⁻¹.
